The data set concerns the target T1, BRB1 tyrosine kinase substrate peptide.
T1 chain: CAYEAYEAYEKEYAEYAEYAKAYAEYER

B1: EphB1 (protein)
chain: SRKRAYSKEAVYSDKLQHYSTGRGSPGMKIYIDPFTYEDPNEAVREFAKEIDVSFVKIEEVIGAGEFGEVYKGRLKLPGKREIYVAIKTLKAGYSEKQRRDFLSEASIMGQFDHPNIIRLEGVVTKSRPVMIITEFMENGALDSFLRQNDGQFTVIQLVGMLRGIAAGMKYLAEMNYVHRDLAARNILVNSNLVCKVSDFGLSRYLQDDTSDPTYTSSLGGKIPVRWTAPEAIAYRKFTSASDVWSYGIVMWEVMSFGERPYWDMSNQDVINAIEQDYRLPPPMDCPAALHQLMLDCWQKDRNSRPRFAEIVNTLDKMIRNPASLKTVATITAVPSQPLLDRSIPDFTAFTTVDDWLSAIKMVQYRDSFLTAGFTSLQLVTQMTSEDLLRIGITLAGHQKKILNSIHSMRVQISQSPTAMA
As for B1, the Signal to Noise ratio with BRB1 Peptide (TR-FRET kinase assay; kinase 0.5 nM) was 29.9.

B2: ACK (protein)
chain: GEGPLQSLTCLIGEKDLRLLEKLGDGSFGVVRRGEWDAPSGKTVSVAVKCLKPDVLSQPEAMDDFIREVNAMHSLDHRNLIRLYGVVLTPPMKMVTELAPLGSLLDRLRKHQGHFLLGTLSRYAVQVAEGMGYLESKRFIHRDLAARNLLLATRDLVKIGDFGLMRALPQNDDHYVMQEHRKVPFAWCAPESLKTRTFSHASDTWMFGVTLWEMFTYGQEPWIGLNGSQILHKIDKEGERLPRPEDCPQDIYNVMVQCWAHKPEDRPTFVALRDFLLEAQPTDMRALQDFEEPDKLHIQMNDVITVIEGRAENYWWRGQNTRTLCVGPFPRNVVTSVAGLSAQDISQPLQNSFIHTGHGDSDPRHCW
As to B2, the Signal to Noise Ratio with BRB1 Peptide (TR-FRET kinase assay; kinase 20 nM) turned out to be 17.3.

B3: EphB3 (protein)
chain: CLRKQRHGSDSEYTEKLQQYIAPGMKVYIDPFTYEDPNEAVREFAKEIDVSCVKIEEVIGAGEFGEVCRGRLKQPGRREVFVAIKTLKVGYTERQRRDFLSEASIMGQFDHPNIIRLEGVVTKSRPVMILTEFMENCALDSFLRLNDGQFTVIQLVGMLRGIAAGMKYLSEMNYVHRDLAARNILVNSNLVCKVSDFGLSRFLEDDPSDPTYTSSLGGKIPIRWTAPEAIAYRKFTSASDVWSYGIVMWEVMSYGERPYWDMSNQDVINAVEQDYRLPPPMDCPTALHQLMLDCWVRDRNLRPKFSQIVNTLDKLIRNAASLKVIASAQSGMSQPLLDRTVPDYTTFTTVGDWLDAIKMGRYKESFVSAGFASFDLVAQMTAEDLLRIGVTLAGHQKKILSSIQDMRLQMNQTLPVQV
As for B3, the Signal to Noise ratio with BRB1 Peptide (TR-FRET kinase assay; kinase 0.1 nM) stood at 24.7.

B4: EphB2 (protein)
chain: CNRRGFERADSEYTDKLQHYTSGHMTPGMKIYIDPFTYEDPNEAVREFAKEIDISCVKIEQVIGAGEFGEVCSGHLKLPGKREIFVAIKTLKSGYTEKQRRDFLSEASIMGQFDHPNVIHLEGVVTKSTPVMIITEFMENGSLDSFLRQNDGQFTVIQLVGMLRGIAAGMKYLADMNYVHRDLAARNILVNSNLVCKVSDFGLSRFLEDDTSDPTYTSALGGKIPIRWTAPEAIQYRKFTSASDVWSYGIVMWEVMSYGERPYWDMTNQDVINAIEQDYRLPPPMDCPSALHQLMLDCWQKDRNHRPKFGQIVNTLDKMIRNPNSLKAMAPLSSGINLPLLDRTIPDYTSFNTVDEWLEAIKMGQYKESFANAGFTSFDVVSQMMMEDILRVGVTLAGHQKKILNSIQVMRAQMNQIQSVEG
Turning to B4, the Signal to Noise ratio with BRB1 Peptide (TR-FRET kinase assay; kinase 0.25 nM) came to 28.8.

B5: EphA2 (protein)
chain: HRRRKNQRARQSPEDVYFSKSEQLKPLKTYVDPHTYEDPNQAVLKFTTEIHPSCVTRQKVIGAGEFGEVYKGMLKTSSGKKEVPVAIKTLKAGYTEKQRVDFLGEAGIMGQFSHHNIIRLEGVISKYKPMMIITEYMENGALDKFLREKDGEFSVLQLVGMLRGIAAGMKYLANMNYVHRDLAARNILVNSNLVCKVSDFGLSRVLEDDPEATYTTSGGKIPIRWTAPEAISYRKFTSASDVWSFGIVMWEVMTYGERPYWELSNHEVMKAINDGFRLPTPMDCPSAIYQLMMQCWQQERARRPKFADIVSILDKLIRAPDSLKTLADFDPRVSIRLPSTSGSEGVPFRTVSEWLESIKMQQYTEHFMAAGYTAIEKVVQMTNDDIKRIGVRLPGHQKRIAYSLLGLKDQVNTVGIPI
With B5, the Signal to Noise ratio with BRB1 Peptide (TR-FRET kinase assay; kinase 0.25 nM) came to 26.9.

B6: EphA6 (protein)
chain: TGRCQWYIKAKMKSEEKRRNHLQNGHLRFPGIKTYIDPDTYEDPSLAVHEFAKEIDPSRIRIERVIGAGEFGEVCSGRLKTPGKREIPVAIKTLKGGHMDRQRRDFLREASIMGQFDHPNIIRLEGVVTKRSFPAIGVEAFCPSFLRAGFLNSIQAPHPVPGGGSLPPRIPAGRPVMIVVEYMENGSLDSFLRKHDGHFTVIQLVGMLRGIASGMKYLSDMGYVHRDLAARNILVNSNLVCKVSDFGLSRVLEDDPEAAYTTTGGKIPIRWTAPEAIAYRKFSSASDAWSYGIVMWEVMSYGERPYWEMSNQDVILSIEEGYRLPAPMGCPASLHQLMLHCWQKERNHRPKFTDIVSFLDKLIRNPSALHTLVEDILVMPESPGEVPEYPLFVTVGDWLDSIKMGQYKNNFVAAGFTTFDLISRMSIDDIRRIGVILIGHQRRIVSSIQTLRLHMMHIQEKGFHV
Regarding B6, the Signal to Noise ratio with BRB1 Peptide (TR-FRET kinase assay; kinase 0.5 nM) amounted to 5.4.

B7: EphA3 (protein)
chain: RFCGYKSKHGADEKRLHFGNGHLKLPGLRTYVDPHTYEDPTQAVHEFAKELDATNISIDKVVGAGEFGEVCSGRLKLPSKKEISVAIKTLKVGYTEKQRRDFLGEASIMGQFDHPNIIRLEGVVTKSKPVMIVTEYMENGSLDSFLRKHDAQFTVIQLVGMLRGIASGMKYLSDMGYVHRDLAARNILINSNLVCKVSDFGLSRVLEDDPEAAYTTRGGKIPIRWTSPEAIAYRKFTSASDVWSYGIVLWEVMSYGERPYWEMSNQDVIKAVDEGYRLPPPMDCPAALYQLMLDCWQKDRNNRPKFEQIVSILDKLIRNPGSLKIITSAAARPSNLLLDQSNVDITTFRTTGDWLNGVWTAHCKEIFTGVEYSSCDTIAKISTDDMKKVGVTVVGPQKKIISSIKALETQSKNGPVPV
For the protein B7, the Signal to Noise ratio with BRB1 Peptide (TR-FRET kinase assay; kinase 0.5 nM) stood at 22.4.

B8: EphA8 (protein)
chain: KKRHCGYSKAFQDSDEEKMHYQNGQAPPPVFLPLHHPPGKLPEPQFYAEPHTYEEPGRAGRSFTREIEASRIHIEKIIGSGDSGEVCYGRLRVPGQRDVPVAIKALKAGYTERQRRDFLSEASIMGQFDHPNIIRLEGVVTRGRLAMIVTEYMENGSLDTFLRTHDGQFTIMQLVGMLRGVGAGMRYLSDLGYVHRDLAARNVLVDSNLVCKVSDFGLSRVLEDDPDAAYTTTGGKIPIRWTAPEAIAFRTFSSASDVWSFGVVMWEVLAYGERPYWNMTNRDVISSVEEGYRLPAPMGCPHALHQLMLDCWHKDRAQRPRFSQIVSVLDALIRSPESLRATATVSRCPPPAFVRSCFDLRGGSGGGGGLTVGDWLDSIRMGRYRDHFAAGGYSSLGMVLRMNAQDVRALGITLMGHQKKILGSIQTMRAQLTSTQGPRRHL
On to B8, for which the Signal to Noise ratio with BRB1 Peptide (TR-FRET kinase assay; kinase 0.25 nM) worked out at 32.3.

B9: EphA1 (protein)
chain: RSRRAQRQRQQRQRDRATDVDREDKLWLKPYVDLQAYEDPAQGALDFTRELDPAWLMVDTVIGEGEFGEVYRGTLRLPSQDCKTVAIKTLKDTSPGGQWWNFLREATIMGQFSHPHILHLEGVVTKRKPIMIITEFMENGALDAFLREREDQLVPGQLVAMLQGIASGMNYLSNHNYVHRDLAARNILVNQNLCCKVSDFGLTRLLDDFDGTYETQGGKIPIRWTAPEAIAHRIFTTASDVWSFGIVMWEVLSFGDKPYGEMSNQEVMKSIEDGYRLPPPVDCPAPLYELMKNCWAYDRARRPHFQKLQAHLEQLLANPHSLRTIANFDPRMTLRLPSLSGSDGIPYRTVSEWLESIRMKRYILHFHSAGLDTMECVLELTAEDLTQMGITLPGHQKRILCSIQGFKD
Turning to B9, the Signal to Noise ratio with BRB1 Peptide (TR-FRET kinase assay; kinase 0.5 nM) came out at 10.8.

B10: EphA5 (protein)
chain: SGSCCECGCGRASSLCAVAHPSLIWRCGYSKAKQDPEEEKMHFHNGHIKLPGVRTYIDPHTYEDPNQAVHEFAKEIEASCITIERVIGAGEFGEVCSGRLKLPGKRELPVAIKTLKVGYTEKQRRDFLGEASIMGQFDHPNIIHLEGVVTKSKPVMIVTEYMENGSLDTFLKKNDGQFTVIQLVGMLRGISAGMKYLSDMGYVHRDLAARNILINSNLVCKVSDFGLSRVLEDDPEAAYTTRGGKIPIRWTAPEAIAFRKFTSASDVWSYGIVMWEVVSYGERPYWEMTNQDVIKAVEEGYRLPSPMDCPAALYQLMLDCWQKERNSRPKFDEIVNMLDKLIRNPSSLKTLVNASCRVSNLLAEHSPLGSGAYRSVGEWLEAIKMGRYTEIFMENGYSSMDAVAQVTLEDLRRLGVTLVGHQKKIMNSLQEMKVQLVNGMVPL
On to B10, for which the Signal to Noise Ratio with BRB1 Peptide (TR-FRET kinase assay; kinase 1 nM) worked out at 35.5.

B11: ARG (protein)
chain: GQQVGRVGEAPGLQQPQPRGIRGSSAARPSGRRRDPAGRTTETGFNIFTQHDHFASCVEDGFEGDKTGGSSPEALHRPYGCDVEPQALNEAIRWSSKENLLGATESDPNLFVALYDFVASGDNTLSITKGEKLRVLGYNQNGEWSEVRSKNGQGWVPSNYITPVNSLEKHSWYHGPVSRSAAEYLLSSLINGSFLVRESESSPGQLSISLRYEGRVYHYRINTTADGKVYVTAESRFSTLAELVHHHSTVADGLVTTLHYPAPKCNKPTVYGVSPIHDKWEMERTDITMKHKLGGGQYGEVYVGVWKKYSLTVAVKTLKEDTMEVEEFLKEAAVMKEIKHPNLVQLLGVCTLEPPFYIVTEYMPYGNLLDYLRECNREEVTAVVLLYMATQISSAMEYLEKKNFIHRDLAARNCLVGENHVVKVADFGLSRLMTGDTYTAHAGAKFPIKWTAPESLAYNTFSIKSDVWAFGVLLWEIATYGMSPYPGIDLSQVYDLLEKGYRMEQPEGCPPKVYELMRACWKWSPADRPSFAETHQAFETMFHDSSISEEVAEELGRAASSSSVVPYLPRLPILPSKTRTLKKQVENKENIEGAQDATENSASSLAPGFIRGAQASSGSPALPRKQRDKSPSSLLEDAKETCFTRDRKGGFFSSFMKKRNAPTPPKRSSSFREMENQPHKKYELTGNFSSVASLQHADGFSFTPAQQEANLVPPKCYGGSFAQRNLCNDDGGGGGGSGTAGGGWSGITGFFTPRLIKKTLGLRAGKPTASDDTSKPFPRSNSTSSMSSGLPEQDRMAMTLPRNCQRSKLQLERTVSTSSQPEENVDRANDMLPKKSEESAAPSRERPKAKLLPRGATALPLRTPSGDLAITEKDPPGVGVAGVAAAPKGKEKNGGARLGMAGVPEDGEQPGWPSPAKAAPVLPTTHNHKVPVLISPTLKHTPADVQLIGTDSQGNKFKLLSEHQVTSSGDKDRPRRVKPKCAPPPPPVMRLLQHPSICSDPTEEPTALTAGQSTSETQEGGKKAALGAVPISGKAGRPVMPPPQVPLPTSSISPAKMANGTAGTKVALRKTKQAAEKISADKISKEALLECADLLSSALTEPVPNSQLVDTGHQLLDYCSGYVDCIPQTRNKFAFREAVSKLELSLQELQVSSAAAGVPGTNPVLNNLLSCVQEISDVVQR
B11: the Signal to Noise ratio with BRB1 Peptide (TR-FRET kinase assay; kinase 0.5 nM) turned out to be 10.6.

For the origin of these results see patent US20100015650.
